IntAct's records for PubMed 17721515

B1: Focal adhesion kinase 1 (Gallus gallus (Chicken)), Q00944 (parent)
chain: MAAAYLDPNLNHTPSSSAKTHLGTGMERSPGAMERVLKVFHYFENSSEPTTWASIIRHGDATDVRGIIQKIVDCHKVKNVACYGLRLSHLQSEEVHWLHLDMGVSNVREKFELAHPPEEWKYELRIRYLPKGFLNQFTEDKPTLNFFYQQVKNDYMLEIADQVDQEIALKLGCLEIRRSYGEMRGNALEKKSNYEVLEKDVGLRRFFPKSLLDSVKAKTLRKLIQQTFRQFANLNREESILKFFEILSPVYRFDKECFKCALGSSWIISVELAIGPEEGISYLTDKGANPTHLADFNQVQTIQYSNSEDKDRKGMLQLKIAGAPEPLTVTAPSLTIAENMADLIDGYCRLVNGATQSFIIRPQKEGERALPSIPKLANNEKQGVRSHTVSVSETDDYAEIIDEEDTYTMPSTRDYEIQRERIELGRCIGEGQFGDVHQGIYMSPENPAMAVAIKTCKNCTSDSVREKFLQEALTMRQFDHPHIVKLIGVITENPVWIIMELCTLGELRSFLQVRKFSLDLASLILYAYQLSTALAYLESKRFVHRDIAARNVLVSATDCVKLGDFGLSRYMEDSTYYKASKGKLPIKWMAPESINFRRFTSASDVWMFGVCMWEILMHGVKPFQGVKNNDVIGRIENGERLPMPPNCPPTLYSLMTKCWAYDPSRRPRFTELKAQLSTILEEEKLQQEERMRMESRRQVTVSWDSGGSDEAPPKPSRPGYPSPRSSEGFYPSPQHMVQPNHYQVSGYSGSHGIPAMAGSIYPGQASLLDQTDSWNHRPQEVSAWQPNMEDSGTLDVRGMGQVLPTHLMEERLIRQQQEMEEDQRWLEKEERFLVMKPDVRLSRGSIEREDGGLQGPAGNQHIYQPVGKPDHAAPPKKPPRPGAPHLGSLASLNSPVDSYNEGVKIKPQEISPPPTANLDRSNDKVYENVTGLVKAVIEMSSKIQPAPPEEYVPMVKEVGLALRTLLATVDESLPVLPASTHREIEMAQKLLNSDLAELINKMKLAQQYVMTSLQQEYKKQMLTAAHALAVDAKNLLDVIDQARLKMISQSRPH

Variants of: B1
Settings: with arp3_bovin ACTR3, P61157

Row | effect of a mutation on the interaction | Variant
1 | increasing interaction | Y397F
